Key:
retinal explants = assay: Ex vivo retinal explants subjected to OGD/R, NeuN flat-mount staining; assay type: cell-based, mouse; conditions: 3 hours OGD/21 hours reoxygenation, treated at reoxygenation; untreated 55%, PEG only 48%
Source text: Evaluation of retinal neurodegeneration: Retina flat-mounts and explants were immunolabeled for the neuronal marker, NeuN (Millipore), as previously described in Shosha, et al., Cell death & disease, 7:e2483-e (2016). Images were collected and analyzed in a blinded fashion using a semi-automated method. Four images per retina flat-mount were taken as Z-stacks in the mid-periphery of each retina petal using an inverted confocal microscope (LSM 780; Carl Zeiss). Three images were taken per explant. NeuN-positive cells were quantified using ImageJ software ‘Batch processing’ function. A prerecorded ImageJ macro code (FIG. 23A-23C) was used for batch processing. The macro was validated every time it was used to make sure it is compatible with the set of images being analyzed. Results from three to four images were averaged to represent neuron density for each retina. Results are presented as % of sham retina or control explant under normoxic conditions. […]
The retinal IR model was mimicked by subjecting retinal explants to oxygen-glucose deprivation/reperfusion (OGD/R) ex vivo (FIG. 19A). An OGD time-response experiment established 3 hours of OGD/21 hours of reoxygenation to be optimal for studying retinal neurodegeneration ex vivo with about 60% neuronal survival as measured by NeuN flat-mount staining (FIG. 19B-19E, 19F).

[1] = tested on: primary rat retinal mixed neurons; assay: Primary retinal mixed neurons subjected to OGD/R, LDH release assay; conditions: 6 hours OGD and 18 hours reperfusion, PEG-A1 1 μg/mL at reoxygenation
Protocol: Retinas from ten pups were collected and washed twice with ice-cold 1×PBS. They were digested with 0.5% trypsin for 3-4 min at 37° C., followed by trypsin inactivation with the culture medium, DMEM/F12 (Gibco, Grand Island, N.Y.) plus 10% FBS and 1% Penicillin-Streptomycin (P/S) solution (Invitrogen, Grand Island, N.Y.). The retina tissue was mechanically dissociated by pipetting several times until cells were dispersed. Cells were then filtered through a 40 μm nylon-mesh filter, collected by centrifugation at 1000 rpm for 10 min, re-suspended in culture medium, and plated in 6 or 12 well-cell culture plates (Corning, Corning, N.Y.) coated with Poly-D-lysine hydrobromide (PDL, Sigma) at a density of 0.5×10^6 cells/mL. The plates were maintained in a humidified CO2 incubator at 37° C. and 5% CO2. At days 1, 2, and 3 in vitro (DIV), half of the medium was aspirated and replaced with Neurobasal A medium containing 1×B-27 (GIBCO), 1× glutaMAX (GIBCO) and 1% P/S. Experiments were conducted at DIV 6.

[2] = tested on: C57BL/6J mice subjected to middle cerebral artery occlusion (MCAO); assay: MCAO stroke model: infarct size (TTC) and Bederson score; assay type: in vivo, mouse; conditions: 60 minutes MCAO, 24 hours
Protocol: MCAO model: C57BL/6J mice (12-16 week-old male, 25-30 g) were subjected to middle cerebral artery occlusion (MCAO) using the intraluminal filament technique (Docol 602145) for 60-minutes followed by reperfusion as described in Eldahshan, et al., American Journal of Physiology Heart and Circulatory Physiology, 316:H1192-h201 (2019). […] A heating pad was used to maintain body temperature at 37° C. […] Sham surgery involved all the regular surgery steps except the filament insertion. Mice were deeply anesthetized at 24 hours and sacrificed by trans-cardial perfusion with PBS then brains were collected and sectioned for triphenyl tetrazolium chloride (TTC) staining or homogenized in RIPA lysis buffer for western blotting. […]
The stroke experiment involved behavioral scoring and manual quantification of the infarct size, and was conducted in a blinded fashion following the STAIR criteria. […]
Infarct size analysis: Brain infarct size was determined based on TTC staining of brain sections as described in Eldahshan, et al., American Journal of Physiology Heart and Circulatory Physiology, 316:H1192-h201 (2019). Images of TTC-stained sections were analyzed in a blinded fashion using ImageJ software [National Institutes of Health (NIH)], and the infarct size was calculated with edema correction using the following formula: 100×[nonstroked−(stroked−infarct)]/nonstroked. […]

B1: PEG-A1: recombinant human arginase (rhArg) covalently attached to methoxy polyethylene glycol (mPEG-SPA; MW 5,000) via succinamide propionic acid (SPA) linker (protein, UniProt P05089 1-322, looked up)
Arginase-1: MSAKSRTIGIIGAPFSKGQPRGGVEEGPTVLRKAGLLEKLKEQECDVKDYGDLPFADIPNDSPFQIVKNPRSVGKASEQLAGKVAEVKKNGRISLVLGGDHSLAIGSISGHARVHPDLGVIWVDAHTDINTPLTTTSGNLHGQPVSFLLKELKGKIPDVPGFSWVTPCISAKDIVYIGLRDVDPGEHYILKTLGIKYFSMTEVDRLGIGKVMEETLSYLLGRKKRPIHLSFDVDGLDPSFTPATGTPVVGGLTYREGLYITEEIYKTGLLSGLDIMEVNPSLGKTPEEVTRTVNTAVAITLACFGLAREGNHKPIDYLNPPK
modifications: mPEG-SPA 5 kDa conjugate
notes: recombinant human arginase (rhArg) covalently attached to methoxy polyethylene glycol (mPEG-SPA; MW 5,000) via succinamide propionic acid (SPA) linker
In the case of B1, the “neuronal survival of retina explants (NeuN)” value (retinal explants) is reported as 73%, the “cell death (LDH release)” value [1] is reported as “increased cell death” and the Bederson score [2] is reported as “trend towards improved Bederson score that did not reach statistical significance”. The “infarct size (TTC, percent of contralesional hemisphere)” value ([2]; vehicle 41%) was 34%.

Reference: US20210340516A1, “COMPOSITIONS CONTAINING ARGINASE 1 FOR THE TREATMENT OF NEUROVASCULAR AND RETINAL VASCULAR DISORDERS” (Augusta University Research Institute, Inc., priority 2020, published 2021)
